# Measured values from patent US7414113B2, “Antibody that specifically binds to Candida kefyr Cytosine deaminase” (Onyx Pharmaceuticals, Inc., priority 2002, dated 2008).
# Changes are numbered by the printed parent chain. Numbers in names are those of the source. Entries after “also recorded” stand apart in the source; their conditions may differ.
# B1: E-CD-FLAG: E. coli cytosine deaminase with FLAG tag (protein, UniProt P25524 2-427, looked up)
# Cytosine deaminase: SNNALQTIINARLPGEEGLWQIHLQDGKISAIDAQSGVMPITENSLDAEQGLVIPPFVEPHIHLDTTQTAGQPNWNQSGTLFEGIERWAERKALLTHDDVKQRAWQTLKWQIANGIQHVRTHVDVSDATLTALKAMLEVKQEVAPWIDLQIVAFPQEGILSYPNGEALLEEALRLGADVVGAIPHFEFTREYGVESLHKTFALAQKYDRLIDVHCDEIDDEQSRFVETVAALAHHEGMGARVTASHTTAMHSYNGAYTSRLFRLLKMSGINFVANPLVNIHLQGRFDTYPKRRGITRVKEMLESGINVCFGHDDVFDPWYPLGTANMLQVLHMGLHVCQLMGYGQINDGLNLITHHSARTLNLQDYGIAAGNSANLIILPAENGFDALRRQVPVRYSVRGGKVIASTQPAQTTVYLEQPEAIDYKR
# modifications: FLAG tag
# B2: E-CD: E. coli (bacterial) cytosine deaminase, 427 amino acids (protein, UniProt P25524 2-427, looked up)
# Cytosine deaminase: B1 Cytosine deaminase
# B3: CD-FUR1 fusion protein: Fusion of Candida kefyr CD and uracil phosphoribosyltransferase (FUR1) (protein)
# chain: MAEWDQKGMDKAYEEAAIGYKEGGVPIGGCLIDNLTGEILGSGHNMRFQKGSPTLHGETSTLENAGRLKGSVYKHCTMYTTLSPCDMCTGAILLYGIGRVVIGENVNFKSPGEEYLTSRGVELKVVDDKRCIDIMKEFIEKRPEDWYEDIGEASEPFKNVYLLPQTNQLLGLYTIIRNKNTTRPDFIFYSDRIIRLLVEEGLNHLPVQKQIVETDTNENFEGVSFMGKICGVSIVRAGESMEQGLRDCCRSVRIGKILIQRDEETALPKLFYEKLPEDISERYVFLLDPMLATGGSAIMATEVLIKRGVKPERIYFLNLICSKEGIEKYHAAFPEVRIVTGALDRGLDENKYLVPGLGDFGDRYYCV
# B4: S. cerevisiae FCY1: Wild type Saccharomyces cerevisiae CD protein, 158 amino acids (protein)
# chain: MVTGGMASKWDQKGMDIAYEEAALGYKEGGVPIGGCLINNKDGSVLGRGHNMRFQKGSATLHGEISTLENCGRLEGKVYKDTTLYTTLSPCDMCTGAIIMYGIPRCVVGENVNFKSKGEKYLQTRGHEVVVVDDERCKKIMKQFIDERPQDWFEDIGE
# B5: CK-CD: Wild type Candida kefyr cytosine deaminase protein, 152 amino acids, SEQ ID NO: 2 (protein)
# chain: MAEWDQKGMDKAYEEAAIGYKEGGVPIGGCLIDNLTGEILGSGHNMRFQKGSPTLHGETSTLENAGRLKGSVYKHCTMYTTLSPCDMCTGAILLYGIGRVVIGENVNFKSPGEEYLTSRGVELKVVDDKRCIDIMKEFIEKRPEDWYEDIGE
# B6: CK-CD-FLAG: Candida kefyr CD with FLAG tag, with the D33E variation (protein)
# chain: B5 chain with D33E
# modifications: C-terminal FLAG tag
# notes: Candida kefyr CD with FLAG tag, with the D33E variation
# Legend:
# [1] = test system: HEK 293 cells; experiment: Expression of CD constructs, anti-FLAG Western blot of cell lysate; type: cell-based, Human; conditions: transiently transfected HEK 293 cells
# Description: Human embryonic kidney cells (HEK 293 cells) were transiently transfected with one of these constructs: CK-CD-FLAG, CK-CD, E-CD-FLAG, E-CD or vector alone (pCMV-tag4C). […] Cells co-transfected with a construct and a GFP containing plasmid indicated approximately equivalent levels of transfection.
# The experimental details are as follows: 293 cells in 10 cm dishes were transfected with 10 or 15 ÿg of CD constructs using FuGene® 6 (ROCHE™) at a DNA/FuGene® ratio of 1:3. No carrier DNA was used. Cell lysates were collected in 1 ml of lysis buffer (20 mM Tris-Cl, pH8, 150 mM NaCl, 1% Triton X-100) after 48 hours by three freeze/thaw cycles using dry ice for 10 minutes and room temperature for 10 minutes.
# 30 μl of cell lysate was separated by 12% SDS-PAGE, transferred to membrane and then Western blotted with anti-flag monoclonal antibody at a dilution of 1:5000 (SIGMA™). The membranes were incubated with HRP conjugated goat-anti-mouse secondary antibody (1:10000, AMERSHAM™) and the signal visualized with an ECL system (AMERSHAM™). […] Similar results were obtained (not shown) when the cells were transfected with 2 μg of each DNA construct. Experiments are planned to test a humanized C. kefyr gene and it is expected that the humanized gene will improve the expression levels.
# Because the bacterial protein was more strongly expressed than the yeast protein, an attempt was made to compare the levels for the amount of expression of the two clones. In a second Western blot, 30 μl of CK-CD-FLAG was compared against increasing amounts of E-CD-FLAG. […] In the following experiments, this ratio of cell lysates is used. The presence of a fainter band at about 38 KD may indicate that some portion of the CK-CD protein dimerizes.
# [2] = 5FC to 5FU conversion assay at different temperatures (14C, TLC); type: biochemical; conditions: for 5FC to 5FU conversion activity: cell lysate, 2 hour assay, FIG. 10
# Method: (§1) The plate was then dried and visualized by autoradiography.
# In the next experiment, we tested the activity of each enzyme against 5FC. The experiment was performed as described above, but using 5FC in place of cytosine. Further, this experiment was combined with a temperature optimization study and was performed at 4 different temperatures. […] Further, a variant with increased stability can be isolated by screening yeast grown at 37° C., as described in the Examples below.
# [3] = reference 16, cited from earlier work
# [4] = test system: transfected cells
# Method: Cytotoxicity assay—transfected cells were seeded at a density of 1×10^3 cells/well in a 96-well microtiterplate containing 100 μl of culture medium. A set of sterile stock dilutions of the 10 mg/ml 5FC solution were prepared. One day later, increasing concentrations of 5FC was added to the wells, and a control well without the prodrug was included. After 5-7 days, the cells were washed with fresh medium and cytotoxicity was assessed by trypan blue exclusion, using a hemocytometer to quantify the results.
# [5] = cited from earlier work
# [6] = cell lysate, 37° C., 16 hour assay, FIG. 9; listed as C. kefyr CD protein
# Method: The reaction mixtures were loaded onto a TLC plate (LK5DF SILICA GEL, Cat. No. 4856-821, WHATMAN™) and resolved with 1-butanol:H2O (85:15) for 3 hours. The plate was then dried and visualized by autoradiography.
# Cell lysates were assayed for cytosine to uracil conversion at 37° C. in a 16 hour assay.
# [7] = Activity of CD variants (conversion of 5FC to 5FU); type: biochemical; conditions: mutant tested, versus protein of SEQ ID NO: 2
# Description: “Fragments” refers to those polypeptides (or nucleic acid sequences encoding such polypeptides) retaining antigenicity, a structural domain, or an enzymatic activity of the full-length protein. The “enzymatic activity” of the CD protein is herein defined to be the conversion of 5FC to 5FU.
# as §1
# The specific variants listed in table 2 are synthesized by site specific mutagenesis of SEQ ID NO: 1 or SEQ ID NO: 3. […] Further, changes within the cytidine and deoxycytidylate deaminase zinc-binding region (grey box) are also expected to be less well tolerated than changes outside this region. These residues involve a change in charge as compared with the closest homolog and are in the binding region. Changes in these residues are expected to change function. Active variants are likely to be those that involve conservative changes in those residues not conserved in the 2 yeasts, particularly those outside the binding region.
# Variants are expressed in E. coli and screened for activity using the assay described in example 3, or any suitable assay. Alternatively, random mutagenesis is performed and the products are similarly screened. In this manner, it will be possible to isolate variants with improved temperature stability at 37° C. and mutants with even better activity than that described herein.
molecule,measurement,setting,value
B1,expression level,[1],much more strongly expressed than the yeast protein
same,expression level,[1]; listed as E. coli CD-FLAG,expressed much more efficiently than Candida kefyr CD-FLAG
B2,5FU produced,[2]; 16 hours of reaction (not shown),as much or more 5FU than the yeast protein
same,Activity % 5FU/5FC by 0.2 μg CD in 2 h,[3],^1616.0 ± 0.8%
same,Km,[3],17.9 mM
same,Vmax,[3],^1611.7 ± 3.8 μM/min/μg enzyme
B3,expected activity in cytotoxicity assay,[4],increased activity
B4,Activity % 5FU/5FC by 0.2 μg CD in 2 h,[3],^1677.9 ± 6.2%
same,Km,[3],0.8 mM
same,Vmax,[3],^1668.0 ± 12.0 μM/min/μg enzyme
same,T½,"[5]; measured, reference 16 (value in brackets)",(^161) HR
same,measured T1/2,"[5]; thermal instability, reference 16",1 h
B5,expression level,[1],significantly lower expression levels than E. coli CD
same,"substrate preference, 5FC versus cytosine",[2],"5FC is a better substrate for C. kefyr CD than is the natural substrate, cytosine"
same,Activity % 5FU/5FC,"[2]; by 45 ul cell extract, 2 h",~50% by 45 ul
same,5FC to 5FU conversion activity,[2],much more active than CK-CD-FLAG; also recorded: more active against 5FC than the bacterial protein; also recorded: more active against 5FC than is the E. coli CD at 2 hours
same,5FC to 5FU conversion activity,[2]; listed as C. kefyr CD,much higher in converting 5FC to 5FU
same,5FC to 5FU conversion activity,[2]; listed as C. kefyr protein,sufficiently active at 37 °C
same,cytosine to uracil conversion activity,[6],far less active against cytosine than was the E. coli CD protein
same,increased cytotoxicity and bystander effect per unit dose of 5FC compared with the bacteria,[4],up to 10 fold
B6,expression level,[1],about ten-fold less well expressed than the E-CD-FLAG
same,5FC to 5FU conversion activity,[2],more active against 5FC than the bacterial protein
same,Activity,[7],Mutant tested and has less activity
